Source: US20250270315A1
Numbering of substitutions follows the chain as printed. Where two headings read alike, the source gives them in different places.

B1: 025c (antibody, V domains shown)
VH: EVQLQQSGAELVKPGASVKLSCTASGFNIKDYYMHWVKQRTEQGLEWIGRIDPEDGETKYAPKFQGKATITADTSSNTAYLQLSSLTSEDTAVYYCDRGLAYWGQGTLVTVSA
VL: QIVLTQSPAIMSASPGEKVTLTCSASSSVSSSYLYWYQQKPGSSPKLWIYSTSNLASGVPARFSGSGSGTSYSLTISSMEAEDAASYFCHQWSSYPYTFGGGTKLEIK
B2: 015c (antibody, V domains shown)
VH: EVQLQQSGVEVVQPGASVKLSCTASGFNIEAYYMHWVKQRTEQGLEWIGRIDPEDGESKYAPKFQGKATMTADTSSSTAYLQLSSLTSDDTAVYYCVRGSYEYWGQGTTLTVSS
VL: B1 VL with A61P, E80Q, H90Y
B3: 025 (antibody, V domains shown)
VH: B1 VH
VL: B1 VL
B4: 015 (antibody, V domains shown)
VH: B2 VH
VL: B1 VL with A61P, E80Q, H90Y
B5: 005 (antibody, V domains shown)
VH: EVKLVESGGGLVQPGGSLSLSCAASGFTFTDYYMSWVRQPPGKALEWLGFIKNEANGYTTESSASVKGRFTISRDNSQSILYLQMNALRAEDSATYYCARYDYYGSNYNWYFDAWGTGTTVTVSS
VL: DIVMTQSQKFMSPSVGDRVSITCKASQNVRTAVAWYQQKPGQSPKVLIHLASKRHTGVPDRFTGSGSGTDFTLTISNVQSEDLADYFCLQHWIHPLTFGAGTKLELK
B6: 005c (antibody, V domains shown)
VH: B5 VH
VL: B5 VL
B7: 042 (antibody, V domains shown)
VH: QIQLVQSGPELKKPGETVKISCRASGYTFTTYGMSWVKQAPGKGLRWMGWINTYSGVSTCADDFKGRFAFSLETSATTAYLQIHNLTNEDTATYFCARDPHSYGNSPAWFPYWGQGTLVTVSA
VL: DIVMTQSQKFMSTTIRDRVSITCKASQNVGISVAWYQQKSGQSPKLLIYSASNRYTGVPDRFTGSGSGTDFTLTISNMQSEDLADYFCQQYSSYPLTFGSGTKLAIK
B8: 073c (antibody, V domains shown)
VH: QIQLVQSGPELKKPGETVKISCKASGYTFTTYGMSWVKQAPGKGLKWMVWINTYSGVPTYADDFKGRFAFSLETSASTSYLQINNLKNEDTATYFCARDPHYYGSSPAWFVYWGQGTLVTVSA
VL: B7 VL with R16G, K24E, N28I, S32A, S40P, D85N, S93A, L96F, A105E, I106V
B9: 042c (antibody, V domains shown)
VH: B7 VH
VL: B7 VL
B10: 071c (antibody, V domains shown)
VH: B8 VH with K65Q, K87R, S105T, V111A
VL: B7 VL with R16G, S20I, N28I, S32A, S40P, Y55F, S93T, L96F, A105E
B11: 071 (antibody, V domains shown)
VH: B8 VH with K65Q, K87R, S105T, V111A
VL: B7 VL with R16G, S20I, N28I, S32A, S40P, Y55F, S93T, L96F, A105E
B12: 073 (antibody, V domains shown)
VH: B8 VH
VL: B7 VL with R16G, K24E, N28I, S32A, S40P, D85N, S93A, L96F, A105E, I106V
B13: hu025.021 (antibody, V domains shown)
VH: EVQLVQSGAEVKKPGATVKISCKVSGFNIKDYYMHWVQQAPGKGLEWIGRIDPEDAETKYAPKFQGRVTITADTSTNTAYMELSSLRSEDTAVYYCDRGLAYWGQGTLVTVSS
VL: EIVLTQSPATLSLSPGERATLSCSASSSVSSSYLYWYQQKPGQAPKLWIYSTSNLASGIPARFSGSGSGTDYTLTISSLEPEDFAVYYCHQWSSYPYTFGQGTKLEIK
B14: hu025.059 (antibody, V domains shown)
VH: B13 VH with V24A
VL: B13 VL
B15: hu025.060 (antibody, V domains shown)
VH: B13 VH with V24A
VL: B13 VL with Y72F
B16: hu025.023 (antibody, V domains shown)
VH: B13 VH
VL: B13 VL with Y72F
B17: hu025.033 (antibody, V domains shown)
VH: B13 VH with N77D
VL: B13 VL
B18: 059c (antibody, V domains shown)
VH: QVQLQQSGPELVKPGASVKMSCKASGYTFSEYVLSWVKQRTGQGLEWIGEIYPGTITTYYNEKFKGKATLTADKSSNTAYIQLTSLTSEDSAVYFCGRFYDYDGGWFAYWGQGTLLTVSA
VL: ENVLTQSPEKMAVSLGQKVTMTCSASSSVSSSDLHWYQQKSGASPKPLIHGTSNLASGVPARFSGSGSGTSYSLTISSVEAEDAATYYCQQWSGYPWTFGGGTNLEIK
B19: 059 (antibody, V domains shown)
VH: B18 VH
VL: B18 VL

Tests used:
[1] = biological target: Human SIRPα v2 (antigen of the Octet and Biacore affinity measurements) (human) (UniProt P78324); assay: BLI (Octet), 1:1 binding model
[2] = biological target: human SIRPα v2 expressed on cells (CHOK1 stable line KYinno KC-1720) (human) (UniProt P78324); assay: competitive FACS, mFc-CD47 ECD on CHOK1-human SIRPα v2 cells
[3] = biological target: cyno SIRPα stably expressed on CHOK1 cells (cyno); assay: FACS, CHOK1-Cyno SIRPα cells
[4] = biological target: Human SIRPα v2 (antigen of the Octet and Biacore affinity measurements) (human) (UniProt P78324); assay: SPR (Biacore), 1:1 binding model
[5] = biological target: human SIRPα v2 expressed on cells (CHOK1 stable line KYinno KC-1720) (human) (UniProt P78324); assay: FACS, CHOK1 cells stably expressing human SIRPα v2
[6] = biological target: human SIRPα v2 expressed on cells (CHOK1 stable line KYinno KC-1720) (human) (UniProt P78324); assay: FACS, CHOK1-hSIRPα v2 cells
[7] = biological target: human SIRPα v2 expressed on cells (CHOK1 stable line KYinno KC-1720) (human) (UniProt P78324); assay: FACS, CHOK1-hSIRPα v2 cells; remark: listed apart in the source
[8] = biological target: cyno SIRPα stably expressed on CHOK1 cells (cyno); assay: FACS, CHOK1-cyno SIRPα cells

EC50 [3] [nM] | TOP MFI [3] [MFI] | EC50 [6] [nM] | TOP MFI [6] [MFI] | EC50 [7] [nM] | TOP MFI [7] [MFI] | MFI at 10 nM [8] [MFI] | also measured | Binder
0.69 | 30800 | 1.34 | 51600 | 0.99 | 53000 |  | Kd [1]: 2.67 nM; koff [1]: 0.00293 s⁻¹; kon [1]: 1.1e+06 M⁻¹ s⁻¹; IC50 [2]: 0.63 nM; TOP blocking (%) [2]: 99.7%; Kd [4]: 1.69 nM; koff [4]: 0.00254 s⁻¹; kon [4]: 1.51e+06 M⁻¹ s⁻¹; EC50 (read off the curve) [5]: 1 nM | B1
0.69 | 29700 | 1.58 | 50100 |  |  |  | Kd [1]: 0.937 nM; koff [1]: 0.00117 s⁻¹; kon [1]: 1.24e+06 M⁻¹ s⁻¹ | B2
 |  |  |  |  |  | 8560 |  | B3
 |  |  |  |  |  | 10800 |  | B4
 |  |  |  |  |  | 5970 |  | B5
 |  | 5.47 | 53300 |  |  |  |  | B6
 |  |  |  |  |  | 6850 |  | B7
1.76 | 30700 | 2.12 | 47300 |  |  |  |  | B8
2.95 | 32400 | 4.21 | 54800 |  |  |  | Kd [1]: 6.14 nM; koff [1]: 0.00378 s⁻¹; kon [1]: 616000 M⁻¹ s⁻¹ | B9
2.64 | 32300 | 3.31 | 46700 |  |  |  |  | B10
 |  |  |  |  |  | 8370 |  | B11
 |  |  |  |  |  | 7850 |  | B12
 |  |  |  | 0.87 | 46400 |  | Kd [4]: 3.39 nM; koff [4]: 0.0056 s⁻¹; kon [4]: 1.65e+06 M⁻¹ s⁻¹ | B13
 |  |  |  | 0.75 | 47300 |  | Kd [4]: 2.76 nM; koff [4]: 0.00392 s⁻¹; kon [4]: 1.42e+06 M⁻¹ s⁻¹ | B14
 |  |  |  | 0.8 | 48800 |  | IC50 [2]: 0.77 nM; TOP blocking (%) [2]: 99.8%; Kd [4]: 2.34 nM; koff [4]: 0.00344 s⁻¹; kon [4]: 1.47e+06 M⁻¹ s⁻¹ | B15
 |  |  |  | 0.81 | 45800 |  | IC50 [2]: 0.75 nM; TOP blocking (%) [2]: 100%; Kd [4]: 2.78 nM; koff [4]: 0.00492 s⁻¹; kon [4]: 1.77e+06 M⁻¹ s⁻¹ | B16
 |  |  |  | 0.62 | 39800 |  |  | B17
17.2 | 17400 | 12 | 19600 |  |  |  |  | B18
 |  |  |  |  |  | 5840 |  | B19
